Test [1] addresses T1, intact Her2 expressed at the cell surface (human, UniProt P04626 23-1255).
T1 construct: whole, on cells; also called Her2 on SKOV3 cells; Her2 on JIMT-1 cells
Nature of the test: flow cytometry on SKOV3 cells, pH 6.0 vs pH 7.3.
Procedure: (§1) The cells were washed twice in 200 μL binding buffer, followed by addition of 120 μL 1.0% propidium iodide and samples were then transferred to Multiscreen 96-well plates (60 μm Nylon Mesh, Millipore, Etobicoke, ON) and filtered by centrifugation. The filtrate samples were collected from the Multiscreen receiver plate and transferred to a new V-bottom polypropylene plate at 4° C. Flow cytometric analysis was performed on a BD LSR-Fortessa instrument (BD Biosciences, San Jose, Calif.). […] Median fluorescence intensity (MFI) was reported by analyzing 3000 alive cells per sample with the gating strategy: all cells/singlets/alive cells (PI negative) using BD FACSDiva software (BD Biosciences).
(§2) The designed variants were then reformatted into human IgG1/k FSAs and re-tested on the high-density Her2 cells.

Test [2] addresses T1, intact Her2 expressed at the cell …. The test is described as follows: flow cytometry on SKOV3 cells, pH 6.8 vs pH 7.3.
Procedure: as §1, §2
Test [3] shares this target. The test is described as follows: flow cytometry on SKOV3 cells, apparent KD, pH 7.3 (Bmax not reached).
Procedure: as §1, §2
Test [4] shares this target. The test is described as follows: flow cytometry (FACS) on SKOV3 cells, full-size antibody, pH 5.2.
Procedure: (§3) Cells in T-75 flasks were washed twice with D-PBS and then dissociated using Cell Dissociation buffer (Sigma, C5914) at 37° C. […] The cells were then washed twice by centrifugation at 233×g, removal of supernatant by aspiration and resuspending the cells in 200 μL binding buffer at 4° C. Detection reagent, either anti-human Fab or Fc AlexaFluor488-(Fab′)² (Jackson Immunochemicals, West Groove, Pa.), was then added at a final concentration of 10 μg/mL and samples were incubated at 4° C., 1 h. The cells were washed twice in 200 μL binding buffer, followed by addition of 120 μL 1.0% propidium iodide and samples were then transferred to Multiscreen 96-well plates (60 μm Nylon Mesh, Millipore, Etobicoke, ON) and filtered by centrifugation. The filtrate samples were collected from the Multiscreen receiver plate and transferred to a new V-bottom polypropylene plate at 4° C. Flow cytometric analysis was performed on a BD LSR-Fortessa instrument (BD Biosciences, San Jose, Calif.). […] Median fluorescence intensity (MFI) was reported by analyzing 3000 alive cells per sample with the gating strategy: all cells/singlets/alive cells (PI negative) using BD FACSDiva software (BD Biosciences).
as §2
Test [5] shares this target. The test is described as follows: flow cytometry (FACS) on SKOV3 cells, full-size antibody, pH 6.0.
Procedure: as §3, §2
The target is the same in test [6]. The test is described as follows: flow cytometry (FACS) on SKOV3 cells, full-size antibody, pH 6.4.
Procedure: as §3, §2
Test [7] has the same target. Nature of the test: flow cytometry on SKOV3 cells, apparent KD, pH 5.2; FSA, SKOV3 cells, pH 5.2.
Procedure: as §1, §2
For test [8] the target is unchanged. The test is described as follows: flow cytometry on SKOV3 cells, apparent KD, pH 5.6; FSA, SKOV3 cells, pH 5.6.
Procedure: as §1, §2
Test [9] shares this target. Nature of the test: flow cytometry on SKOV3 cells, apparent KD, pH 6.0; FSA, SKOV3 cells, pH 6.0.
Procedure: as §1, §2
The target is the same in test [10]. The test is described as follows: flow cytometry on SKOV3 cells, apparent KD, pH 6.4; FSA, SKOV3 cells, pH 6.4.
Procedure: as §1, §2
Test [11] shares this target. The test is described as follows: flow cytometry on SKOV3 cells, apparent KD, pH 6.8; FSA, SKOV3 cells, pH 6.8.
Procedure: as §1, §2
For test [12] the target is unchanged. Nature of the test: flow cytometry on SKOV3 cells, apparent KD, pH 7.3.
The target of test [13] is T2, Recombinant human Her2 extracellular domain (human, UniProt P04626 23-652).
T2 construct: extracellular domain; also called Her2 ectodomain; recombinant Her2 ectodomain
Nature of the test: SPR, Fab over immobilized Her2 ectodomain, pH 5.0, 25 C.
Procedure: (§4) Fab-Her2 interactions were analyzed using a Biacore™ T200 (GE Healthcare, Missisauga, ON) surface plasmon resonance instrument. […] Recombinant human Her2 extracellular domain (ThermoFisher Scientific, Burlington, ON) was immobilized onto a CM-5 sensorchip along with a mock-activated blank control surface for referencing. Her2 was diluted to 10 μg/mL in 10 mM NaOAc immobilization buffer pH 4.5 (Biacore) and immobilized to approximately 200 RUs using the Biacore control software Immobilization Wizard with standard NHS/EDC amine coupling. […] Fab samples were injected at 100 4/min with a contact time of 90 s and a 1200-s dissociation using either pH 5.0 or 7.4 running buffer. Sensorgrams were double referenced to the mock-activated blank sensor surface and analyzed for kinetic determination using a 1:1 binding model in BiaEvaluation software v3.1 (GE Healthcare).

For test [14], the target named is T2, Recombinant human Her2 extracellular …. The test is described as follows: SPR, Fab over immobilized Her2 ectodomain, pH 7.4, 25 C.
Procedure: as §4
The target in test [15] is T1, intact Her2 expressed at the cell …. The test is described as follows: flow cytometry on SKOV3 cells, apparent KD, pH 5.2 (Bmax not reached).
Test [16] has the same target. Nature of the test: flow cytometry on SKOV3 cells, apparent KD, pH 5.2.
For test [17] the target is unchanged. Nature of the test: flow cytometry on SKOV3 cells, apparent KD, pH 5.6.
Test [18] has the same target. The test is described as follows: flow cytometry on SKOV3 cells, apparent KD, pH 6.0.
The target is the same in test [19]. Nature of the test: flow cytometry on SKOV3 cells, apparent KD, pH 6.4.
Test [20] shares this target. Nature of the test: flow cytometry on SKOV3 cells, apparent KD, pH 6.8.
For test [21] the target is unchanged. Nature of the test: flow cytometry on SKOV3 cells, apparent KD, pH 7.3. This is another data set of the same source.
Test [22] shares this target. Nature of the test: flow cytometry (FACS) on SKOV3 cells, full-size antibody, pH 7.3.
Test [23] has the same target. The test is described as follows: flow cytometry on JIMT-1 cells (low Her2 density), full-size antibody, pH 6.0.
Test [24] shares this target. The test is described as follows: flow cytometry on JIMT-1 cells (low Her2 density), full-size antibody, pH 7.3.
Test [25] has as its target T2, Recombinant human Her2 extracellular …. The test is described as follows: SPR, pH 5.0 vs pH 7.4.
Procedure: as §4
Test [26] has the same target. The test is described as follows: SPR, acidic pH 5.0 vs physiological pH 7.4, relative to the parent bH1.
Procedure: as §4
In test [27] the target is T1, intact Her2 expressed at the cell …. Nature of the test: flow cytometry on SKOV3 cells, apparent KD, pH 5.2 (Bmax not reached); Fab, SKOV3 cells, pH 5.2 (acidic); approximate, Bmax not reached.
Procedure: (§5) The cells were then washed twice by centrifugation at 233×g, removal of supernatant by aspiration and resuspending the cells in 200 μL binding buffer at 4° C. Detection reagent, either anti-human Fab or Fc AlexaFluor488-(Fab′)² (Jackson Immunochemicals, West Groove, Pa.), was then added at a final concentration of 10 μg/mL and samples were incubated at 4° C., 1 h. The cells were washed twice in 200 μL binding buffer, followed by addition of 120 μL 1.0% propidium iodide and samples were then transferred to Multiscreen 96-well plates (60 μm Nylon Mesh, Millipore, Etobicoke, ON) and filtered by centrifugation. The filtrate samples were collected from the Multiscreen receiver plate and transferred to a new V-bottom polypropylene plate at 4° C. Flow cytometric analysis was performed on a BD LSR-Fortessa instrument (BD Biosciences, San Jose, Calif.). […] Median fluorescence intensity (MFI) was reported by analyzing 3000 alive cells per sample with the gating strategy: all cells/singlets/alive cells (PI negative) using BD FACSDiva software (BD Biosciences).
The target is the same in test [28]. The test is described as follows: cell-based or functional assay.
Test [29] shares this target. Nature of the test: flow cytometry on SKOV3 cells, pH 5.2, against bH1-P5 and bH1-P5P7 Fabs.
Procedure: as §5

We go through 9 molecules from patent US20220162337A1 (NATIONAL RESEARCH COUNCIL OF CANADA, published 2022).

Where a chain is given by its changes, count along the chain named. In names and notes the source's numbering stands. A value given as a limit tells only on which side of the number the result lay.

B1: bH1-P5P7-FSA (antibody, human IgG1, kappa, V domains shown)
VH: not shown
VL: DIQMTQSPSSLSASVGDRVTITCRASQDIPHSISGYVAWYQQKPGKAPKLLIYWGSYLYSGVPSRFSGSGSGTDFTLTISSLQPEDFATYYCQQHYTTPPTFGQGTKVEIKR
notes: also called bH1-P5P7 full-size antibody
B1: the “fold pH-selectivity, pH 6.0 over pH 7.3” value in test [1] is greater than 10 fold. For the same molecule, the “fold pH-selectivity, pH 6.8 over pH 7.3” value in test [2] is roughly 25 fold. Besides, the Kd in test [3] was roughly 716 nM; in [7] it was 8.4 nM; in test [8], 9.5 nM; in test [9], 9.7 nM; in [10], 16 nM; in test [11] it was 29.7 nM. Besides, the “EC50 (read off the curve)” value was roughly 8 nM in test [4], roughly 10 nM in [5] and roughly 20 nM in test [6].

B2: parental bH1-Fab (Fab, V domains shown)
VH: not shown
VL: B1 VL with H31R
For B2, the Kd in [12] is 21.3 nM; in [13], 13 nM; in [14], 3 nM; in test [15], roughly 41 nM.

B3: bH1-P7 (L-R30aH) Fab (Fab, V domains shown)
VH: not shown
VL: B1 VL
With B3, the Kd in test [13] was found to be 17 nM; in test [14], 5.7 nM.

B4: parental bH1-FSA (full-size human IgG1/k antibody) (antibody, V domains shown)
VH: not shown
VL: B1 VL with H31R
In the case of B4, the Kd in test [16] was 2.6 nM; in [17], 1.5 nM; in test [18], 2.9 nM; in test [19] it was 2.9 nM; in test [20], 2 nM; in test [21], 4.1 nM. In addition, the “EC50 (read off the curve)” value in test [4] was roughly 3 nM; in test [5] it was roughly 3 nM; in test [6], roughly 3 nM; in test [22] it was roughly 4 nM; in test [23], roughly 2 nM; in test [24] it was roughly 2 nM.

B5: bH1-P6 (H-Y100aH) Fab (Fab, V domains shown)
VH: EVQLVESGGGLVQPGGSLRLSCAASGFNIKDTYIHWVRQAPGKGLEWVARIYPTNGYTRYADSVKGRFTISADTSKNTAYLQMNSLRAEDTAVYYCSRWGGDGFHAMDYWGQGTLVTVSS
VL: B1 VL with H31R
B5: in [14], the Kd was determined as 10 nM, the koff worked out at 0.0048 s⁻¹ and the kon stood at 480000 M⁻¹ s⁻¹.

B6: bH1-P8 (L-S30bH) Fab (Fab, V domains shown)
VH: not shown
VL: B1 VL with H31R, S32H
For B6, the Kd was determined as 9.9 nM in test [13] and 3.4 nM in [14].

B7: bH1-P5P7 (H-R58H,L-R30aH) Fab (Fab, V domains shown)
VH: not shown
VL: B1 VL
notes: also called bH1-P5P7-Fab
Turning to B7, the “fold stronger binding at acidic pH than at physiological pH” value in test [25] is roughly 6 fold. The results for the Kd in [13], in test [14] and in [27] were 90 nM, 530 nM and roughly 178 nM, respectively. Further, the koff in test [13] worked out at 0.0057 s⁻¹; in test [14] it was 0.021 s⁻¹. In addition, the results for the kon in [13] and in [14] were 70000 M⁻¹ s⁻¹ and 40000 M⁻¹ s⁻¹, respectively. The ΔΔΔGbinding in [26] was -1.93 kcal/mol.

B8: bH1-P5P8-FSA (antibody, human IgG1, kappa, V domains shown)
VH: not shown
VL: B1 VL with H31R, S32H
notes: also called bH1-P5P8 full-size antibody
With B8, the “internalization of FITC conjugated antibody into BT474 cells, pH 6.4” value in test [28] is 2 fold over negative control. In addition, the Kd in test [3] was roughly 290 nM; in test [7], 12.3 nM; in test [10], 15.1 nM; in test [11] it was 21.7 nM. The “EC50 (read off the curve)” value in test [4] was roughly 10 nM; in [5], roughly 10 nM; in test [6] it was roughly 20 nM.

B9: bH1-P5P8 (H-R58H,L-S30bH) Fab (Fab, V domains shown)
VH: not shown
VL: B1 VL with H31R, S32H
notes: also called bH1-P5P8-Fab; bH1-P5P8 Fab
As for B9, the “fold stronger binding at acidic pH than at physiological pH” value in test [25] was roughly 6 fold. In addition, the Kd in test [13] was 50 nM; in test [14], 290 nM; in [27] it was roughly 93 nM. Moreover, the koff in test [13] came to 0.0037 s⁻¹; in test [14] it was 0.011 s⁻¹. Further, the results for the kon in test [13] and in test [14] were 90000 M⁻¹ s⁻¹ and 40000 M⁻¹ s⁻¹, respectively. Besides, the “fold stronger affinity than bH1-P5 and bH1-P5P7” value in test [29] is roughly 2 fold. The ΔΔΔGbinding in [26] is -1.91 kcal/mol.
